From FireProtDB come the findings set out here.

Several values for one entry are separate records, joined by “and”; a condition that tells them apart may be missing. Equal entries are not always repeated.

For the data set the following is noted: whole UniProt chain shown.
[1] abbreviates: Halobacterium salinarum (strain ATCC 700922 / JCM 11081 / NRC-1), pH 7, Thermal, DSC, phosphate 0.1 M.
[2] abbreviates: Salmonella typhimurium (strain LT2 / SGSC1412 / ATCC 700720), pH 9.01, Thermal, DSC, sodium tetraborate 1 mM.

B1: Bacteriorhodopsin wild type, P02945 (protein)
chain: MLELLPTAVEGVSQAQITGRPEWIWLALGTALMGLGTLYFLVKGMGVSDPDAKKFYAITTLVPAIAFTMYLSMLLGYGLTMVPFGGEQNPIYWARYADWLFTTPLLLLDLALLVDADQGTILALVGADGIMIGTGLVGALTKVYSYRFVWWAISTAAMLYILYVLFFGFTSKAESMRPEVASTFKVLRNVTVVLWSAYPVVWLIGSEGAGIVPLNIETLLFMVLDVSAKVGFGLILLRSRAIFGEAEAPEPSAGDGAAATSD
Consider B1, for which, under setting [1], the “unfolding enthalpy (calorimetric)” value is 50 kcal/mol and 86 kcal/mol and 104 kcal/mol; the “unfolding enthalpy (van 't Hoff)” value was 71 kcal/mol and 125 kcal/mol and 155 kcal/mol.

B2: wild type, Q72LK2 (protein)
chain: MEATLPVLDAKTAALKRRSIRRYRKDPVPEGLLREILEAALRAPSAWNLQPWRIVVVRDPATKRALREAAFGQAHVEEAPVVLVLYADLEDALAHLDEVIHPGVQGERREAQKQAIQRAFAAMGQEARKAWASGQSYILLGYLLLLLEAYGLGSVPMLGFDPERVKAILGLPSHAAIPALVALGYPAEEGYPSHRLPLERVVLWR
Consider B2, for which, for the setting “Thermus thermophilus (strain ATCC BAA-163 / DSM 7039 / HB27)”, the Tm came to 30 °C.

B3: Formate dehydrogenase wild type, O13437 (protein)
chain: MKIVLVLYDAGKHAADEEKLYGCTENKLGIANWLKDQGHELITTSDKEGETSELDKHIPDADIIITTPFHPAYITKERLDKAKNLKLVVVAGVGSDHIDLDYINQTGKKISVLEVTGSNVVSVAEHVVMTMLVLVRNFVPAHEQIINHDWEVAAIAKDAYDIEGKTIATIGAGRIGYRVLERLLPFNPKELLYYDYQALPKEAEEKVGARRVENIEELVAQADIVTVNAPLHAGTKGLINKELLSKFKKGAWLVNTARGAICVAEDVAAALESGQLRGYGGDVWFPQPAPKDHPWRDMRNKYGAGNAMTPHYSGTTLDAQTRYAEGTKNILESFFTGKFDYRPQDIILLNGEYVTKAYGKHDKK
Regarding B3, the Tm (Candida boidinii) is 59 °C.

B4: FMN-dependent NADH:quinone oxidoreductase 1 wild type, Q88IY3 (protein)
chain: MKLLHIDSSILGDNSASRQLSREVVEAWKAADPSVEVVYRDLAADAIAHFSAATLVAAGTPEDVRDAAQAFEAKLSAETLEEFLAADAVVIGAPMYNFTVPTQLKAWIDRVAVAGKTFRYTEAGPQGLCGNKKVVLVSTAGGLHAGQPTGAGHEDFLKVFLGFIGITDLEIVRAHGLAYGPEQRSQAIDAAQAQIASELFAAA
Take B4: the Tm (Pseudomonas putida (strain ATCC 47054 / DSM 6125 / CFBP 8728 / NCIMB 11950 / KT2440), Fluorescence spectroscopy) was 47 °C.

B5: Alpha-lactalbumin wild type, P00711 (protein)
chain: MMSFVSLLLVGILFHATQAEQLTKCEVFRELKDLKGYGGVSLPEWVCTTFHTSGYDTQAIVQNNDSTEYGLFQINNKIWCKDDQNPHSSNICNISCDKFLDDDLTDDIMCVKKILDKVGINYWLAHKALCSEKLDQWLCEKL
As to B5, the Tm (Bos taurus, pH 6, Thermal, DSC, Unknown) turned out to be 59 °C.

B6: Tryptophan synthase alpha chain wild type, P00929 (protein)
chain: MERYENLFAQLNDRREGAFVPFVTLGDPGIEQSLKIIDTLIDAGADALELGVPFSDPLADGPTIQNANLRAFAAGVTPAQCFEMLALIREKHPTIPIGLLMYANLVFNNGIDAFYARCEQVGVDSVLVADVPVEESAPFRQAALRHNIAPIFICPPNADDDLLRQVASYGRGYTYLLSRSGVTGAENRGALPLHHLIEKLKEYHAAPALQGFGISSPEQVSAAVRAGAAGAISGSAIVKIIEKNLASPKQMLAELRSFVSAMKAASRA
Turning to B6, under setting [2], the Tm came to 46.2 °C and the “unfolding enthalpy (van 't Hoff)” value is 3.68 kcal/mol.
